Test results as given in patent US10233255B2, “Antibody therapeutics that bind STAT3” (Sorrento Therapeutics, Inc., priority 2016, dated 2019).
“Also recorded” adds a separate entry of the source.

Tests used:
[1] = test system: MCF-10A cells; assay: Accumulation / internalization of antibody conjugate in MCF-10A cells (fluorescence imaging); type: cell-based, human; conditions: 30 minutes pretreatment, FIG. 14
[2] = test system: cellular antigens in U251 cells; assay: Cell binding of naked versus PS-conjugated antibody in U251 cells (HTFC); set-up: species or system human; conditions: permeabilized U251 cells, FIG. 4
Description: Cell binding of naked anti-STAT3 ST3G12 antibodies (ST3G12) versus compound 901 (ST3G12-PS) was assessed in U251 cells. Cells were lifted, permeabilized and incubated with increasing amounts of naked anti-STAT antibodies and PS anti-STAT antibody (compound 901) in PBS+/−2% fetal bovine serum (FBS). After 45 minutes at room temperature, cells were washed twice and incubated with phycoerythrin (PE) conjugated-anti-human IgG for 20 minutes at room temperature in the dark. Cells were then washed and analyzed by high throughput flow cytometry (HTFC). The results are shown in FIG. 4 for assessment of antibody binding to U251 cells.

[3] = test system: STAT3 phosphorylation; assay: IL-6 stimulated STAT3 phosphorylation ELISA on cell lysates; type: cell-based, human; conditions: overnight antibody, IL-6 10 or 40 ng/ml for 20 minutes
Description: Normal breast epithelial cells (MCF-10A) and ER+ breast cancer cells (MCF-7) were treated with naked ST3G12 antibody and conjugated ST3G12-PS antibody (compound 901) (shown as “OS-STAT3” in FIGS. 8A and 8B) to determine the effect on STAT3 phosphorylation. Cells were pre-treated overnight with antibody, and then stimulated with various concentrations of IL-6 for 20 minutes (10 ng/ml or 40 ng/ml). IL-6 is a STAT3 activator. Cells were then lysed and the protein lysates were subjected to ELISA to determine the phosphorylation status. […] “OS-AIP” refers to an oligosaccharide conjugated bacterial AIP protein, used as a control.

[4] = mouse, in vivo, iv
Description: (§3) The pharmacokinetic properties of the anti-STAT3 antibody conjugates were examined in athymic nude mice.

[5] = Pharmacokinetics in athymic nude mice; conditions: administered intravenously
Description: as §3

[6] = target: T1, STAT3 (Homo sapiens, UniProt P40763); assay: Cell binding assay on fixed, permeabilized human cells (PE anti-human IgG, flow cytometry); set-up: endogenous in cells; host or cells: MDA-MB-468 (also given as MDA-MB-435), U251, HeLa
Description: (§1) Next, the binding of the candidate anti-STAT3 antibodies to cellular targets was tested in cell binding assays using MDA-MB-435 breast cancer cells and U251 cells. The cells were seeded overnight in a 96 well plate, then fixed with PFA and permeabilized with methanol. Cells were incubated with serial dilutions of the anti-STAT3 antibody candidates ST1A5, ST3G12 and ST5G12 for one hour and 30 minutes. Following incubation, the cells were washed and incubated for 30 minutes with phycoerythrin (PE) conjugated anti-human IgG. Fluorescence was measured on an Intellicyte high-throughput flow cytometry analyzer. […] Bevacizumab (Avastin), a monoclonal antibody that inhibits vascular endothelial growth factor A (VEGF-A) was used as a negative control.
(§2) An isotype control was used as a negative control. The experimental procedure was the same as described above for FIGS. 3A and 3B.

[7] = target: GST protein (Schistosoma japonicum, UniProt P08515); assay: Biacore binding to GST protein (specificity control)
[8] = target: T2, mouse STAT3 (Mus musculus, UniProt P42227); assay: Cell binding assay on fixed, permeabilized mouse cell lines (flow cytometry); conditions: FIG. 3C
T2 construct: endogenous in cells; host or cells: CT-26, MC-38
Description: as §1, §2

[9] = test system: U251 cells; assay: Accumulation / internalization of antibody conjugate in U251 cells (fluorescence imaging); type: cell-based, human; conditions: 20 ug/mL, 2 hours at 37° C.
Description: The same experiments were repeated in the U251 glioblastoma cell line, which also has high levels of STAT3 activity, as described in FIG. 7A. U251 cells were treated with 10 ug/ml of ST3G12-PS antibody conjugate compound 901 in increasing proportions of human serum (1%, 5%, 10% and 20%), for 90 minutes at 37° C. Cells were then fixed, permeabilized and stained with anti-human IgG Alexa546. […] MCF-10A, a normal human mammary epithelial cell line with low levels of STAT3 activity (STAT3 low), was described in FIGS. 7A and 7B. This cell line was also tested according to the above protocol. […] The results of another experiment that was performed to determine accumulation of anti-STAT3 antibody conjugate (e.g. compound 901) are shown in FIG. 7C.
Experiments were carried out to confirm that the ST3G12-PS antibody conjugate (compound 901) was penetrating the cells. Briefly, previously cleaned glass coverslips were coated with collagen for 2 hours at 37° C. 100,000 U251 cells were seeded on the coverslips. Media was removed, and cells were rinsed once with fluorobrite. Next, 20 ug/mL of the specified antibody was added for 2 hours at 37° C. […] In FIG. 10E, red fluorescence indicates the plasma membrane, blue fluorescence indicates the nuclei and green florescence represents the intracellular accumulated ST3G12-PS antibody conjugate compound 901a. […]

[10] = test system: Human colon cancer HCT116 cells; assay: Penetration of 3D tumor spheroids, HCT116 cells; type: cell-based; conditions: alexa fluor 488 labeled, FIG. 18C
Description: Next, experiments were carried out to determine the effect of the STAT3 antibody conjugate on penetration of tumor cells and on tumor cell growth in a three-dimensional (3D) model. 3D in vitro models, such as a tumor spheroid model, have been used in cancer research as an intermediate model between in vitro cancer cell line cultures and in vivo tumor. Human colon cancer HCT116 cells were grown in a 3D tumor spheroid model in a ULA (ultra low attachment) plate, and treated with alexa fluor 488 dye labeled anti-STAT3 monoclonal antibody or alexa fluor labeled anti-STAT3 antibody conjugate (compound 901) for one hour to initiate the uptake. Thereafter, spheres were imaged every 10 min for the next 80 hours with ImageExpress. FIG. 18C are images that show detection of the alexa fluor. […] Next, the effect of the anti-STAT3 antibody conjugate (compound 901) on the growth of 3D tumor spheroids was examined DU145 human prostate cancer cells were seeded in ULA plate. Spheres were allowed to form for 72 hours then treated with the indicated antibodies for additional 5 days. Growth was monitored by ImageXpress HCS confocal microscopy (FIG. 19A). CTG assay was used to determine percent viability in FIG. 19B and percent killing in FIG. 19C. Experiments were done in triplicate wells. Error bars represent one standard deviation.

[11] = target: T1, STAT3; assay: Biacore T200 affinity measurement, captured antibody vs recombinant human STAT3-GST; type: binding
Description: Biacore T200 was used to measure the affinity of anti-STAT and anti-STAT-phosphorothioate (PS) antibody (compound 901) to human STAT3. Anti-human Fc antibody (GE, BR-1008-39) was immobilized on a CM5 sensor chip to approximately 1000 RU using standard NHS/EDC coupling methodology. Antibodies (approximately 10 ug/ml) were captured for 60 seconds at a flow rate of 10 ul/min Recombinant human STAT3-GST was serially diluted 2-fold into running buffer (HBS-EP+, starting from […]). All measurements were conducted at a flow rate of 30 ul/min Surfaces were regenerated with 3M MgCl2 (from human antibody kit) for 60 seconds. A 1:1 (Langmuir) binding model was used to fit the data. The results are shown in Table 2, below for anti-STAT3 antibody, ST3G12, and the conjugated anti-STAT3 antibody, ST3G12-PS (compound 901).

T1 sequence (P40763 whole entry): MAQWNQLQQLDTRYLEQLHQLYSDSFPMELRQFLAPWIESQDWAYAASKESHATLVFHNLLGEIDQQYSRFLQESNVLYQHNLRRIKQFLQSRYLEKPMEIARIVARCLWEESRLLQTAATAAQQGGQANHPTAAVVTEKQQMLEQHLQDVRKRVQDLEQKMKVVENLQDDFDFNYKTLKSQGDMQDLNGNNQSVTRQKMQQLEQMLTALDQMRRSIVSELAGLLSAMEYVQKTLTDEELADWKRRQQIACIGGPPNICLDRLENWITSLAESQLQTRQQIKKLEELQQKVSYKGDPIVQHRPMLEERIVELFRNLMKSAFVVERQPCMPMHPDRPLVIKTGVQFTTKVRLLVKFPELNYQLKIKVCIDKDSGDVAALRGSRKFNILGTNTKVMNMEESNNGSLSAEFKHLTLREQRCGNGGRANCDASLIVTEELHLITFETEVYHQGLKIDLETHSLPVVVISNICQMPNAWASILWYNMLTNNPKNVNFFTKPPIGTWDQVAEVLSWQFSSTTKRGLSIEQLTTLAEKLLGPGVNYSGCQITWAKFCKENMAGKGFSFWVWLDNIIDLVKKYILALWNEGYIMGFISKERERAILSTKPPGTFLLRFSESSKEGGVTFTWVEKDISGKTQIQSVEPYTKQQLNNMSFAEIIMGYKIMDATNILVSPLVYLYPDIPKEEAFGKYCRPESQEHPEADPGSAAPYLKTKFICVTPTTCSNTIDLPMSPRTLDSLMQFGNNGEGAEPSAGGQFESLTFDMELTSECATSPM
T2 sequence (P42227 whole entry): as the sequence (P40763 whole entry) above, with E760D counted along it
GST protein, sequence (P08515 whole entry): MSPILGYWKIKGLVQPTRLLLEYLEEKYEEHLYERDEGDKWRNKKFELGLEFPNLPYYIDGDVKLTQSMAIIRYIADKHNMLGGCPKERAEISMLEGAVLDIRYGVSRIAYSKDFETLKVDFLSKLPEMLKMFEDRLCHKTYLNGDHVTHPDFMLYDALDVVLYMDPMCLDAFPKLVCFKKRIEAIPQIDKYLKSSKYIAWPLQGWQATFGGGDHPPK

O=C1NC(=NS(=O)(=O)c2cccc3ccccc23)S/C1=C\c1ccc(Br)cc1 [PS2, Pitstop2]
effect of clathrin inhibitor on ST3G12-PS uptake ([1]; 30 uM and 60 uM): inhibited

CCCCC[C@@H](O)[C@H]1C(=O)O[C@H](C)[C@@H](O)/C=C/C=C/C=C/C=C/C=C(\C)[C@@H](O)C[C@H](O)C[C@H](O)C[C@H](O)C[C@H](O)C[C@H](O)C[C@@H]1O [filipin]
effect of caveolin inhibitor on ST3G12-PS uptake ([1]; 0.5 ug/ml): little effect
effect of caveolin inhibitor on ST3G12-PS uptake ([1]; 1.0 ug/ml): greater effect

B1: ST3G12: fully human anti-STAT3 antibody, heavy/light chain variable domains SEQ ID NO. 3/SEQ ID NO. 4 (antibody, V domains shown)
VH: QVQLVQSGAEVKKPGASVKVSCKASGYTFTSYYMHWVRQAPGQGLEWMGIINPSGGSTSYAQKFQGRVTMTRDTSTSTVYMELSSLRSEDTAVYYCARSDYVHSFDIWGQGTMVTVSS
VL: QPVLTQPPSASALLGASIKLTCTLSSEHSTYTVEWYQQRPGRSPQYIMNVKSDGSYNKGDGIPDRFMGSSSGADRYLTFSNLQSDDEAEYHCGESHRIDGQVGVVFGGGTKLTVL
antibody binding to U251 cells, naked versus conjugated [2]: considerably lower
effect on STAT3 phosphorylation in MCF-10A cells ([3]; FIG. 8A): little to no effect
effect on STAT3 phosphorylation in MCF-7 cells ([3]; FIG. 8B): little to no effect
AUC (0-336 hr) [4]: 254.6 µg·days/mL
Cmax [4]: 79.7 µg/mL
Vs s [4]: 0.0833 L/kg
CI [5]: 18.7 mL/day/kg
T ½ [5]: 76.5 h
binding to HeLa cell line ([6]; HeLa cells, FIG. 3C): strong binding
STAT3 binding in MDA-MB-468 cells ([6]; MDA-MB-468 cells, FIG. 3A): bound STAT3
STAT3 binding in U251 cells ([6]; U251 cells, FIG. 3B / 3C): bound STAT3; also recorded: strong binding
binding to GST protein [7]: No binding
binding to CT-26 mouse cell line ([8]; CT-26 cells): able to recognize mouse STAT3
binding to MC-38 mouse cell line ([8]; MC-38 cells): able to recognize mouse STAT3
cell penetration / internalization by microscopy [9]: no internalization
penetration of tumor spheroids [10]: did not
Rmax [11]: 174
Ka ([11]; 1:1 (Langmuir) binding model): 59700 M⁻¹ s⁻¹
Kd ([11]; 1:1 (Langmuir) binding model): 0.000322 s⁻¹
